Source: the Human Domainome abundance scans (Beltran et al. 2025)
± gives the uncertainty stated by the source.

B1: Cytoplasmic polyadenylation element-binding protein 2, residues 513 to 575; numbered along this chain, Q7Z5Q1 (parent)
chain: KRVEVKPYVLDDQMCDECQGARCGGKFAPFFCANVTCLQYYCEFCWANIHSRAGREFHKPLVK

Variants of: B1
Experiment: abundance fitness (aPCA) (normalised: wild type 0, dead -1); higher = more abundant; growth selection in yeast, the domain comes from the species named
Conditions: Homo sapiens

Variant | abundance fitness
KRVEVKPHVLDDQMCDECQGARCGGKFAPFFCANVTCLQYYCEFCWANIHSRAGREFHKPLVK [Y8H] | -0.036 ± 0.079
KRVEVKPYVLDDQMCDECQGARCGGKFAPFFCSNVTCLQYYCEFCWANIHSRAGREFHKPLVK [A33S] | 0.061 ± 0.036
KRVEVKPYVLDDQMCDECQGARCGGKFAPFFCPNVTCLQYYCEFCWANIHSRAGREFHKPLVK [A33P] | -0.072 ± 0.05
KRVEVKPYVLDDQMCDECQGARCGGKFAPFFCYNVTCLQYYCEFCWANIHSRAGREFHKPLVK [A33Y] | 0.009 ± 0.089
KRVEVKPYVLDDQMCDECQGARCGGKFAPFFCVNVTCLQYYCEFCWANIHSRAGREFHKPLVK [A33V] | -0.124 ± 0.044
KRVEVKPYNLDDQMCDECQGARCGGKFAPFFCANVTCLQYYCEFCWANIHSRAGREFHKPLVK [V9N] | 0.007 ± 0.12
KRVEVKPYVLDDQMCDECQGARCGGKFAPFFCANVTCLQYYCEFCWANIHSWAGREFHKPLVK [R52W] | -0.225 ± 0.061
KRVEVKPYVLDDQMCDECQGARCGGKFAPFFCANVTCLQYYCEFCWANIHSDAGREFHKPLVK [R52D] | 0.156 ± 0.073
KRVEVKPYVLDDQMCDECQGARCGGKFAPFFCANVTCLQYYCEFCWANIHSCAGREFHKPLVK [R52C] | -0.077 ± 0.14
KRVEVKPYVLDDQMCDECQGARCGGKFAPFFCANVTCLQYYCEFCWANIHSEAGREFHKPLVK [R52E] | 0.079 ± 0.045
KEVEVKPYVLDDQMCDECQGARCGGKFAPFFCANVTCLQYYCEFCWANIHSRAGREFHKPLVK [R2E] | 0.067 ± 0.083
KDVEVKPYVLDDQMCDECQGARCGGKFAPFFCANVTCLQYYCEFCWANIHSRAGREFHKPLVK [R2D] | 0.001 ± 0.14
KRVEVKPYVLDDQMCDECQGARAGGKFAPFFCANVTCLQYYCEFCWANIHSRAGREFHKPLVK [C23A] | -0.154 ± 0.066
KRVEVKPYVLDDQMCDECQGARCGGKFAPFFCANVTCLQYYCEFCWANIHSRAGREFHKPLVT [K63T] | -0.079 ± 0.085
KRVEVKPYVLDDQMCDECQGARCIGKFAPFFCANVTCLQYYCEFCWANIHSRAGREFHKPLVK [G24I] | -0.418 ± 0.06
KRVEVKPYVLDDQMCDECQGARCGGKFAPFFCANVTCLQYYCEFCWANIHSRAGIEFHKPLVK [R55I] | 0.104 ± 0.1
KRVEVKPYVLDDQMCDECQGARCGGKFAPFFCANVTCLQYYCEFCWANIHSRAGAEFHKPLVK [R55A] | -0.03 ± 0.052
KRVEVKPYVLDDQMCDECQGARCGGKFAPFFCAVVTCLQYYCEFCWANIHSRAGREFHKPLVK [N34V] | -0.29 ± 0.051
KRVEVKPYVLDDQMCDECQGVRCGGKFAPFFCANVTCLQYYCEFCWANIHSRAGREFHKPLVK [A21V] | -0.098 ± 0.041
KRVEVKPYVLDDQMCDECQGHRCGGKFAPFFCANVTCLQYYCEFCWANIHSRAGREFHKPLVK [A21H] | -0.238 ± 0.077
KRVEVKPYVLDDQMCDLCQGARCGGKFAPFFCANVTCLQYYCEFCWANIHSRAGREFHKPLVK [E17L] | -0.117 ± 0.043

Variant | abundance fitness
KRVEVKPYVLDDQMCDECQGARCGGKFAPFFCANVTCLQYYCEFCWLNIHSRAGREFHKPLVK [A47L] | -0.18 ± 0.047
KRVEVKPYVLDDQMCDECQGARCGGKFAPFFCANVTCLQYYCEFCWRNIHSRAGREFHKPLVK [A47R] | -0.041 ± 0.042
KRVEVKPYVLDDQMCDECQGARCGGKFAPFFCANVTCLQYYCEFCWYNIHSRAGREFHKPLVK [A47Y] | -0.114 ± 0.088
KRVEVKPYVLDDQMCVECQGARCGGKFAPFFCANVTCLQYYCEFCWANIHSRAGREFHKPLVK [D16V] | -0.036 ± 0.038
KRVEVKPYVLDDQMCDECQGAMCGGKFAPFFCANVTCLQYYCEFCWANIHSRAGREFHKPLVK [R22M] | -0.026 ± 0.066
KRVEVKPYVLDDQMCDECQGAACGGKFAPFFCANVTCLQYYCEFCWANIHSRAGREFHKPLVK [R22A] | -0.126 ± 0.045
KRVEVKPYVLDDQMCDECQGARCGGKFAPFFCANVTCLQYYCEFCWANIHSRAPREFHKPLVK [G54P] | -0.004 ± 0.057
KRVEVKPYVLDDQMCDECQGARCGGKFAPFFCANVTCLQYYCEFCWANIHSRATREFHKPLVK [G54T] | -0.112 ± 0.068
KRVEVKPYVLDDQMCDECQGARCGGKFAPFFCANVTCLQYYCEFCWANIHSRANREFHKPLVK [G54N] | 0.108 ± 0.11
KRVEVKPYVLDDQMCDECQGARCGGKFAPFFCANVTCLQYYCEFCWANIHSRAEREFHKPLVK [G54E] | -0.065 ± 0.064
KRVEVKPYVLDDQMCDECQGARCGGKFAPFACANVTCLQYYCEFCWANIHSRAGREFHKPLVK [F31A] | -0.644 ± 0.081
KRVEVKPYVLDDQMCDECQGARCGGKFAPFKCANVTCLQYYCEFCWANIHSRAGREFHKPLVK [F31K] | -0.332 ± 0.09
KRVEVKPYVLDDQMCDECQGARCGGKFAPFNCANVTCLQYYCEFCWANIHSRAGREFHKPLVK [F31N] | -0.608 ± 0.098
KRVEVKPYVLDDQMCDECQGARCGGKFRPFFCANVTCLQYYCEFCWANIHSRAGREFHKPLVK [A28R] | -0.233 ± 0.039
KRVEVKPYVLDDQMCDECQGARCGGKFPPFFCANVTCLQYYCEFCWANIHSRAGREFHKPLVK [A28P] | -0.208 ± 0.068
KRVEVKPYVLDDQMCDECQGARCGGKFAPFFCANVTCLQYYCEFCWANIHSRAGREFHKPHVK [L61H] | -0.048 ± 0.11
KRVEVKPYVLDDQMCDECQGARCGGKFAPFFCANVTCLQQYCEFCWANIHSRAGREFHKPLVK [Y40Q] | -0.184 ± 0.09
KRVEVKPYVLDDQMCDECQGARCGGKFAPFFCANVTCLQYYCEFFWANIHSRAGREFHKPLVK [C45F] | -1.2 ± 0.17
KRVEVKPYVLDDQMCDECQGARCGGKFAPFFCANVTCLQYYCEFLWANIHSRAGREFHKPLVK [C45L] | -1.14 ± 0.081
KRVEVKPYVLDDQMCDECQGARCGGKFAPFFCANVTCLQYYCEFSWANIHSRAGREFHKPLVK [C45S] | -1.1 ± 0.094
KRVEVKPYVIDDQMCDECQGARCGGKFAPFFCANVTCLQYYCEFCWANIHSRAGREFHKPLVK [L10I] | -0.062 ± 0.083
